Laboratory results reported in publication PMC2690590, “Functional recombinant MHC class II molecules and high-throughput peptide-binding assays” (Immunome Research, 2009).

Legend:
Assay in all cases: AlphaScreen or HTRF
[1] = target: DR1GrpE: DR1 α chain 1–181 and β chain 1–190 fused C-terminally to GrpE, not biotinylated (human)
[2] = target: DR2a (DRA*0101/DRB5*0101) with non-biotinylated β chain, competitive LOCI assay (human)
[3] = target: DR2a (DRA*0101/DRB5*0101), biotinylated, direct LOCI assay at pH 6 (human)
[4] = target: DRB1*0813: DRA*0101/DRB1*0813 (human)

Substance: Flu HA1194-202 peptide […]
- IC50 [1]: 42 nM
- IC50 [2]: 529 nM
- Kd [3]: 167 nM
- Kd [4]: 276 nM
